Test results taken from the supplement of paper PMC9112550, “Optimization of the antimicrobial peptide Bac7 by deep mutational scanning” (BMC Biology, 2022).

System: Escherichia coli TOP10
Test: shrunken log2 fold change of peptide-encoding DNA abundance (4.5 h post-induction vs induction); higher = less antimicrobial activity (less host growth inhibition)
Settings: time post-induction: 4.5 h; library: site-saturation at positions 5, 18, 19, 20
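Also: peptides expressed intracellularly from a pBAD plasmid library in pooled LB shake-flask culture, induced with 0.3% L-arabinose, DNA abundance read by NGS, three biological replicates, DESeq2 with apeglm shrinkage.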

Point of comparison: RRIRWRPPRLPRPRPRPAWYPRP, “shrunken log2 fold change” value 0.0415. Against it:
- RRIRPRPPRLPRPRPRPHWPPRP — within 0.2 log units, 0.0791
- RRIRGRPPRLPRPRPRPFPHPRP — within 0.2 log units, 0.155
- RRIRWRPPRLPRPRPRPQNDPRP — within 0.2 log units, -0.0722
- RRIRDRPPRLPRPRPRPPAEPRP — higher, 0.525
- RRIRKRPPRLPRPRPRPKEFPRP — within 0.2 log units, 0.232
- RRIRFRPPRLPRPRPRPHCKPRP — within 0.2 log units, -0.112
- RRIRVRPPRLPRPRPRPWCEPRP — lower, -0.293
- RRIRDRPPRLPRPRPRPICWPRP — higher, 0.318
- RRIRDRPPRLPRPRPRPYSPPRP — within 0.2 log units, 0.0205
- RRIRDRPPRLPRPRPRPTKMPRP — higher, 0.269
- RRIRLRPPRLPRPRPRPHRKPRP — lower, -0.295
- RRIRKRPPRLPRPRPRPPCMPRP — within 0.2 log units, -0.0208
- RRIRKRPPRLPRPRPRPVCMPRP — within 0.2 log units, 0.0492
- RRIRFRPPRLPRPRPRPGKRPRP — within 0.2 log units, -0.0962
- RRIRIRPPRLPRPRPRPRRLPRP — within 0.2 log units, -0.0824
- RRIRDRPPRLPRPRPRPASGPRP — within 0.2 log units, 0.15
- RRIRCRPPRLPRPRPRPSYSPRP — lower, -1.04
- RRIRWRPPRLPRPRPRPTWYPRP — higher, 0.27
- RRIRQRPPRLPRPRPRPKCLPRP — within 0.2 log units, 0.0772
- RRIRQRPPRLPRPRPRPANQPRP — within 0.2 log units, -0.091
- RRIRYRPPRLPRPRPRPGMCPRP — within 0.2 log units, 0.0154
- RRIRVRPPRLPRPRPRPCTHPRP — within 0.2 log units, 0.0145
- RRIRDRPPRLPRPRPRPNEIPRP — within 0.2 log units, -0.0208
- RRIRGRPPRLPRPRPRPHGIPRP — within 0.2 log units, 0.00234
- RRIRTRPPRLPRPRPRPQMMPRP — within 0.2 log units, -0.0792
- RRIRFRPPRLPRPRPRPCYCPRP — within 0.2 log units, -0.064
- RRIRPRPPRLPRPRPRPGNCPRP — within 0.2 log units, -0.0898
- RRIRLRPPRLPRPRPRPDKSPRP — within 0.2 log units, -0.118
- RRIRMRPPRLPRPRPRPHIWPRP — within 0.2 log units, -0.0244
- RRIRRRPPRLPRPRPRPYFWPRP — within 0.2 log units, 0.0638
- RRIRARPPRLPRPRPRPPTTPRP — higher, 0.775
- RRIRFRPPRLPRPRPRPRDDPRP — within 0.2 log units, 0.133
- RRIRKRPPRLPRPRPRPTVFPRP — within 0.2 log units, 0.0385
- RRIRPRPPRLPRPRPRPRPIPRP — higher, 0.27
- RRIRSRPPRLPRPRPRPLYWPRP — within 0.2 log units, -0.154
- RRIRDRPPRLPRPRPRPYHNPRP — lower, -0.461
- RRIRRRPPRLPRPRPRPMLCPRP — higher, 0.709
- RRIRCRPPRLPRPRPRPQLEPRP — within 0.2 log units, -0.135
- RRIRHRPPRLPRPRPRPLKCPRP — within 0.2 log units, -0.024
- RRIRQRPPRLPRPRPRPIAAPRP — higher, 0.269
- RRIRERPPRLPRPRPRPNLFPRP — within 0.2 log units, 0.0891
- RRIRSRPPRLPRPRPRPRQGPRP — within 0.2 log units, 0.185
- RRIRTRPPRLPRPRPRPMAIPRP — within 0.2 log units, -0.00284
- RRIRTRPPRLPRPRPRPCALPRP — within 0.2 log units, -0.0236
- RRIRDRPPRLPRPRPRPRYFPRP — higher, 0.242
- RRIRVRPPRLPRPRPRPKQTPRP — within 0.2 log units, -0.0483
- RRIRNRPPRLPRPRPRPTHVPRP — within 0.2 log units, 0.216
- RRIRDRPPRLPRPRPRPQGTPRP — within 0.2 log units, 0.165
- RRIRPRPPRLPRPRPRPGISPRP — within 0.2 log units, -0.155
- RRIRMRPPRLPRPRPRPCHQPRP — within 0.2 log units, -0.0062
- RRIRPRPPRLPRPRPRPMCFPRP — lower, -0.405
- RRIRYRPPRLPRPRPRPGHDPRP — within 0.2 log units, -0.0736
- RRIRQRPPRLPRPRPRPGAFPRP — within 0.2 log units, -0.158
- RRIRRRPPRLPRPRPRPWHWPRP — within 0.2 log units, 0.183
- RRIRVRPPRLPRPRPRPFMGPRP — lower, -0.334
- RRIRNRPPRLPRPRPRPRWYPRP — lower, -0.194
- RRIRWRPPRLPRPRPRPILGPRP — within 0.2 log units, -0.0119
- RRIRWRPPRLPRPRPRPKKGPRP — within 0.2 log units, 0.22
- RRIRERPPRLPRPRPRPLGWPRP — higher, 0.335
- RRIRSRPPRLPRPRPRPLTMPRP — lower, -0.242
- RRIRLRPPRLPRPRPRPTIQPRP — within 0.2 log units, -0.0934
- RRIRFRPPRLPRPRPRPAMDPRP — within 0.2 log units, -0.0614
- RRIRPRPPRLPRPRPRPELVPRP — higher, 0.442
- RRIRYRPPRLPRPRPRPGIIPRP — within 0.2 log units, -0.0361
- RRIRLRPPRLPRPRPRPECFPRP — within 0.2 log units, 0.226
- RRIRVRPPRLPRPRPRPALYPRP — within 0.2 log units, 0.22
- RRIRIRPPRLPRPRPRPLIHPRP — lower, -0.556
- RRIRCRPPRLPRPRPRPAACPRP — within 0.2 log units, 0.202
- RRIRARPPRLPRPRPRPDYSPRP — within 0.2 log units, 0.00409
- RRIRLRPPRLPRPRPRPTVPPRP — within 0.2 log units, -0.0925
- RRIRHRPPRLPRPRPRPAGVPRP — within 0.2 log units, 0.141
- RRIRKRPPRLPRPRPRPLIVPRP — lower, -0.223
- RRIRCRPPRLPRPRPRPGHNPRP — lower, -0.385
- RRIRSRPPRLPRPRPRPHKIPRP — lower, -0.48
